Data reported in the RNAGym collection of RNA variant scans (doi:10.1093/molbev/msab373).

B1: Azoarcus group I ribozyme (parent)
chain: GUGCCUUGCGCCGGGAAACCACGCAAGGGAUGGUGUCAAAUUCGGCGAAACCUAAGCGCCCGCCCGGGCGUAUGGCAACGCCGAGCCAAGCUUCGGCGCCUGCGCCGAUGAAGGUGUAGAGACUAGACGGCACCCACCUAAGGCAAACGCUAUGGUGAAGGCAUAGUCCAGGGAGUGGCGAAAGUCACACAAACCGG

Variants of: B1
Test: reverse-splicing fitness (ratio to wild type); higher = more active; in vitro selection; Mg2+ level not given
Outline: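 An in vitro group I ribozyme library with randomized positions was T7-transcribed and gel-purified. In triplicate, 10 pmol RNA in EPPS pH 7.5 was reacted with 50 pmoles of a 30-nt RNA substrate for 1 h at 37 °C across several added MgCl2 levels (1–48 mM), then stopped with EDTA. Products were reverse transcribed from a substrate-complementary primer, PCR-amplified and sequenced (HiSeq 4000). Fitness is a variant's read proportion after selection over that before, normalised to wild type.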

Variant	reverse-splicing fitness
GUGCCUUGCGCCGGGAAACCACGCAAGGGAUGGUGUCAAAUUCGGCGAAACCUAAGCGCCCGCCCGGGCGUAUGGCAACGCUGAGCCAAGCUUCGGCGCCUGCGCCGAUGCAGGUGUAGUGACUAGACGGCACCCACCUAAGGCCAACGCUAUGGUGAAGGCAUAGUCCAGGGAGAGGCGAAAGUCACACAAACCGG [C82U A111C A120U A145C U176A]	0.00655
GUGCCUUGCGCCGGGAAACCACGCAAGGGAUGGUGUCAAAUUCGGCGAAACCUAAGCGCCCGCCCGGGCGUAUGGCAACGCUGAGCCAAGCUUCGGCGCCUGCGCCGAUGCAGGUGUAGUGACUAGACGGCACCCACCUAAGGCCAACGCUAUGGUGAAGGCAUAGUCCAGGGAGCGGCGAAAGUCACACAAACCGG [C82U A111C A120U A145C U176C]	0.00705
GUGCCUUGCGCCGGGAAACCACGCAAGGGAUGGUGUCAAAUUCGGCGAAACCUAAGCGCCCGCCCGGGCGUAUGGCAACGCUGAGCCAAGCUUCGGCGCCUGCGCCGAUGCAGGUGUAGUGACUAGACGGCACCCACCUAAGGCCAACGCUAUGGUGAAGGCAUAGUCCAGGGAGGGGCGAAAGUCACACAAACCGG [C82U A111C A120U A145C U176G]	0.00296
GUGCCUUGCGCCGGGAAACCACGCAAGGGAUGGUGUCAAAUUCGGCGAAACCUAAGCGCCCGCCCGGGCGUAUGGCAACGCUGAGCCAAGCUUCGGCGCCUGCGCCGAUGCAGGUGUAGUGACUAGACGGCACCCACCUAAGGCGAACGCUAUGGUGAAGGCAUAGUCCAGGGAGUGGCGAAAGUCACACAAACCGG [C82U A111C A120U A145G]	0.0248
GUGCCUUGCGCCGGGAAACCACGCAAGGGAUGGUGUCAAAUUCGGCGAAACCUAAGCGCCCGCCCGGGCGUAUGGCAACGCUGAGCCAAGCUUCGGCGCCUGCGCCGAUGCAGGUGUAGUGACUAGACGGCACCCACCUAAGGCGAACGAUAUGGUGAAGGCAUAGUCCAGGGAGUGGCGAAAGUCACACAAACCGG [C82U A111C A120U A145G C150A]	0.00865
GUGCCUUGCGCCGGGAAACCACGCAAGGGAUGGUGUCAAAUUCGGCGAAACCUAAGCGCCCGCCCGGGCGUAUGGCAACGCUGAGCCAAGCUUCGGCGCCUGCGCCGAUGCAGGUGUAGUGACUAGACGGCACCCACCUAAGGCGAACGAUAUGGUGAAGGCAUAGUCAAGGGAGUGGCGAAAGUCACACAAACCGG [C82U A111C A120U A145G C150A C169A]	0.00616
GUGCCUUGCGCCGGGAAACCACGCAAGGGAUGGUGUCAAAUUCGGCGAAACCUAAGCGCCCGCCCGGGCGUAUGGCAACGCUGAGCCAAGCUUCGGCGCCUGCGCCGAUGCAGGUGUAGUGACUAGACGGCACCCACCUAAGGCGAACGAUAUGGUGAAGGCAUAGUCAAGGGAGAGGCGAAAGUCACACAAACCGG [C82U A111C A120U A145G C150A C169A U176A]	0.00664
GUGCCUUGCGCCGGGAAACCACGCAAGGGAUGGUGUCAAAUUCGGCGAAACCUAAGCGCCCGCCCGGGCGUAUGGCAACGCUGAGCCAAGCUUCGGCGCCUGCGCCGAUGCAGGUGUAGUGACUAGACGGCACCCACCUAAGGCGAACGAUAUGGUGAAGGCAUAGUCAAGGGAGCGGCGAAAGUCACACAAACCGG [C82U A111C A120U A145G C150A C169A U176C]	0.00409
GUGCCUUGCGCCGGGAAACCACGCAAGGGAUGGUGUCAAAUUCGGCGAAACCUAAGCGCCCGCCCGGGCGUAUGGCAACGCUGAGCCAAGCUUCGGCGCCUGCGCCGAUGCAGGUGUAGUGACUAGACGGCACCCACCUAAGGCGAACGAUAUGGUGAAGGCAUAGUCAAGGGAGGGGCGAAAGUCACACAAACCGG [C82U A111C A120U A145G C150A C169A U176G]	0.00278
GUGCCUUGCGCCGGGAAACCACGCAAGGGAUGGUGUCAAAUUCGGCGAAACCUAAGCGCCCGCCCGGGCGUAUGGCAACGCUGAGCCAAGCUUCGGCGCCUGCGCCGAUGCAGGUGUAGUGACUAGACGGCACCCACCUAAGGCGAACGAUAUGGUGAAGGCAUAGUCGAGGGAGUGGCGAAAGUCACACAAACCGG [C82U A111C A120U A145G C150A C169G]	0.00517
GUGCCUUGCGCCGGGAAACCACGCAAGGGAUGGUGUCAAAUUCGGCGAAACCUAAGCGCCCGCCCGGGCGUAUGGCAACGCUGAGCCAAGCUUCGGCGCCUGCGCCGAUGCAGGUGUAGUGACUAGACGGCACCCACCUAAGGCGAACGAUAUGGUGAAGGCAUAGUCGAGGGAGAGGCGAAAGUCACACAAACCGG [C82U A111C A120U A145G C150A C169G U176A]	0.00613
GUGCCUUGCGCCGGGAAACCACGCAAGGGAUGGUGUCAAAUUCGGCGAAACCUAAGCGCCCGCCCGGGCGUAUGGCAACGCUGAGCCAAGCUUCGGCGCCUGCGCCGAUGCAGGUGUAGUGACUAGACGGCACCCACCUAAGGCGAACGAUAUGGUGAAGGCAUAGUCGAGGGAGCGGCGAAAGUCACACAAACCGG [C82U A111C A120U A145G C150A C169G U176C]	0.00549
GUGCCUUGCGCCGGGAAACCACGCAAGGGAUGGUGUCAAAUUCGGCGAAACCUAAGCGCCCGCCCGGGCGUAUGGCAACGCUGAGCCAAGCUUCGGCGCCUGCGCCGAUGCAGGUGUAGUGACUAGACGGCACCCACCUAAGGCGAACGAUAUGGUGAAGGCAUAGUCGAGGGAGGGGCGAAAGUCACACAAACCGG [C82U A111C A120U A145G C150A C169G U176G]	0.00246
GUGCCUUGCGCCGGGAAACCACGCAAGGGAUGGUGUCAAAUUCGGCGAAACCUAAGCGCCCGCCCGGGCGUAUGGCAACGCUGAGCCAAGCUUCGGCGCCUGCGCCGAUGCAGGUGUAGUGACUAGACGGCACCCACCUAAGGCGAACGAUAUGGUGAAGGCAUAGUCUAGGGAGUGGCGAAAGUCACACAAACCGG [C82U A111C A120U A145G C150A C169U]	0.0043
GUGCCUUGCGCCGGGAAACCACGCAAGGGAUGGUGUCAAAUUCGGCGAAACCUAAGCGCCCGCCCGGGCGUAUGGCAACGCUGAGCCAAGCUUCGGCGCCUGCGCCGAUGCAGGUGUAGUGACUAGACGGCACCCACCUAAGGCGAACGAUAUGGUGAAGGCAUAGUCUAGGGAGAGGCGAAAGUCACACAAACCGG [C82U A111C A120U A145G C150A C169U U176A]	0.00566
